One experiment deals with SEMG2 (human) (UniProt Q02383). The experiment in a line: ELISA; negative control. Background: ELISA stands for enzyme-linked immunosorbent assay.
Experiment [1] deals with T1, SEMG1 recombinant protein (semenogelin-1) (human, UniProt P04279 24-462, limits assumed).
T1 construct: also called full-length SEMG1
T1 sequence (looked up): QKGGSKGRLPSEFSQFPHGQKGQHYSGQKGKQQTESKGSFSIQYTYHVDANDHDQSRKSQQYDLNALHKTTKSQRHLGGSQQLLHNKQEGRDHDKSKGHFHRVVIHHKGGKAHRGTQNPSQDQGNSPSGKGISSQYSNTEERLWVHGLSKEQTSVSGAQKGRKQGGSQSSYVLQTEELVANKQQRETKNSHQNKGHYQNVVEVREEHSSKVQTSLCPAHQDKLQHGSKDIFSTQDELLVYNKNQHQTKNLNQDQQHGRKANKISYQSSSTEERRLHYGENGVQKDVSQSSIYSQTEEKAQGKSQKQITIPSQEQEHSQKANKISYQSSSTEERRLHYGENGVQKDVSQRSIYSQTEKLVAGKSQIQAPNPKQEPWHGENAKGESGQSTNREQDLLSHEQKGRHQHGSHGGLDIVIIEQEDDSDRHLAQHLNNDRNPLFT
The experiment in a line: ELISA; SEMG1 coated, antibody in 3-fold dilution series, goat anti-mouse HRP. As for the experimental part: (§1) In order to identify whether the screened monoclonal antibodies with neutralizing effect can bind to SEMG1 and SEMG2 proteins, we coated SEMG2 protein diluted in carbonate buffer (Solarbio, Beijing, China) to a final concentration of 1 μg/mL on a dedicated ELISA plate (costar, ME, USA), and the binding of 1 μg/mL mouse hybridoma antibody to SEMG2 was initially tested. According to the determination outcome, the binding and binding strength between SEMG1 or SEMG2 and the purified mouse monoclonal antibody were further analyzed by ELISA experiment, and an irrelevant mouse monoclonal antibody was taken as a negative control. Specifically, a special plate for ELISA (costar, ME, USA) was used. First, different concentrations of SEMG1 or SEMG2 recombinant proteins were dissolved in 100 μL of carbonate coating buffer (Solarbio, Beijing, China) to 2 μg/mL to coat the plate, and the negative control was coated with 100 μL of coating buffer without protein. The plates were coated overnight at 4° C. […] After washing with PBST, color developing solution (Sangon, Shanghai, China) was used for color development, 100 μL per well, the plate was placed in an incubator for 5-30 minutes, and adding 50 μL of stop solution (Sangon, Shanghai, China) to stop the reaction, and then the plate was placed in a microplate reader (Thermo Fisher, MA, USA) for chromogenic reading at 450 nm.

Experiment [2] concerns the target T2, S1-26 synthetic polypeptide of SEMG1 (human).
T2 construct: also called SEMG1-26
T2 peptide: KDIFSTQDELLVYNK
The experiment in a line: ELISA on coated peptide; antibody at 2.5 ug/mL; positive if OD ratio to blank >3. As for the experimental part:
⅓ overlapping peptide sequences were designed, and a peptide library consisting of 45 peptides (GenScript, Nanjing) was synthesized. Peptide matrix was prepared by using a polypeptide-coated 96-well plate (Costar, Corning), and the selected monoclonal antibody was used as the primary antibody for ELISA binding test, and SEMG1 coating was set as a positive control, and BSA coating was set as a control. The ELISA procedure was performed routinely, as described in Example 2 above. For the coated polypeptide well with OD_{experimental group}/OD_{blank group}>3, it was determined as a positive reaction, which was the corresponding antibody-bound polypeptide sequence.

The target in experiment [3] is T3, SEMG2 recombinant protein (semenogelin-2) (human, UniProt Q02383 24-582, limits assumed).
T3 construct: also called SMEG2
T3 sequence (looked up): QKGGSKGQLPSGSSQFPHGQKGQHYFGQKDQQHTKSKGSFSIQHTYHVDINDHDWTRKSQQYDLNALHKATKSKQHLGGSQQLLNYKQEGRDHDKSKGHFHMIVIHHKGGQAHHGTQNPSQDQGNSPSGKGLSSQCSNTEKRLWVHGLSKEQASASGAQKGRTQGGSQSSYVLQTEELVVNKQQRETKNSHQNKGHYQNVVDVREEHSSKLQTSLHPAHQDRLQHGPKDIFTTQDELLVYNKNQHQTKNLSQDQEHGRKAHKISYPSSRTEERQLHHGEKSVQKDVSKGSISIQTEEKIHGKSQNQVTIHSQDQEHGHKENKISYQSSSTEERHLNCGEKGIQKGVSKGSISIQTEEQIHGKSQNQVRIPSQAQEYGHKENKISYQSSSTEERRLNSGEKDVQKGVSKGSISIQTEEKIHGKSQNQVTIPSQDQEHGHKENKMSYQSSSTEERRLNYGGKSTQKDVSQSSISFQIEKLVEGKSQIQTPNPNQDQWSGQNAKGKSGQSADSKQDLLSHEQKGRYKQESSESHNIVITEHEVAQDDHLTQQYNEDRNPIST
Description: ELISA; SEMG2 coated, antibody in 3-fold dilution series, goat anti-mouse HRP. Here is the method:
as §1

Changes are numbered by the printed parent chain.

In general, EC50 refers to the concentration that produces a half-maximal response. On to mIgG1, for which the EC50 with SEMG2 (human) came to 4.24 nM.

B1: 25-E10-F8-B5 (antibody, mouse IgG1, V domains shown)
VH: QVQLQQPGAELVKPGASVKMSCKASGYTFTSYNMHWVKQTPGQGLEWIGAIYPGNGDTSYNQKFKGKATLTADKSSSTAYMQLSSLTSEDSAVYYCASAMDYWGQGTSVTVSS
VL: SIVMTQTPLSLPVSLGDQASISCRSSQSLVHSNGNTYLQWYLQKPGQSPKLLIYKVSNRFSGVPDRFSGSGSGTDFTLKISRVEAEDLGVYFCSQSKHVPRTFGGGTKLEIK
notes: Mouse hybridoma monoclonal antibody; The V regions were re-cloned with murine IgG1 and murine kappa constant regions to verify activity
Turning to B1, the results for the EC50 in experiment [1] and in experiment [3] were 1.26 nM and 1.69 nM, respectively. Besides, in experiment [2], the binding result is reported as “binds”.

B2: 33-B5-C1-F5 (antibody, mouse IgG1, V domains shown)
VH: B1 VH with Q1E, Q6E, P7S, G15R, T30S, V37I, K38R, G42E, N55T
VL: B1 VL with S1D, I2V, M4L, V30L, Y41F, K44R, P45S, S61Y, K97I, H98D
notes: as for B1
With B2, the concentration giving a half-maximal response (EC50) in experiment [1] amounted to 3.67 nM; in experiment [3] it was 2.39 nM. For the same molecule, the binding result in experiment [2] is on record as “binds”.

These data come from patent US20250136711A1 (SHANGHAI BIOTROY BIOTECHNIQUE, published 2025).
